# The Human Domainome abundance scans (Beltran et al. 2025)
# ± gives the uncertainty stated by the source.
# B1: Zinc finger homeobox protein 3, residues 2147 to 2202; numbered along this chain, Q15911 (parent)
# chain: RPRTRITDDQLRVLRQYFDINNSPSEEQIKEMADKSGLPQKVIKHWFRNTLFKERQ
# Variants of: B1
# Assay: abundance fitness (aPCA) (normalised: wild type 0, dead -1); higher = more abundant; growth selection in yeast, the domain comes from the species named
# Settings: Homo sapiens
row,Variant,abundance fitness
1,P39I,-0.199 ± 0.16
2,P39D,-0.015 ± 0.14
3,R1M,-0.573 ± 0.2
4,R1N,0.078 ± 0.32
5,R1Y,0.022 ± 0.28
6,R1A,-0.652 ± 0.41
7,I29L,0.09 ± 0.079
8,I29S,-0.491 ± 0.093
9,I29M,-0.008 ± 0.1
10,I29Y,-0.189 ± 0.25
11,I29G,-0.827 ± 0.082
12,I29E,-0.334 ± 0.095
13,I29R,-0.507 ± 0.073
14,D34R,-0.086 ± 0.068
15,D34Q,-0.112 ± 0.12
16,D34A,0.071 ± 0.084
17,D34M,-0.097 ± 0.11
18,D34W,-0.318 ± 0.093
19,D34V,-0.063 ± 0.074
20,D34I,-0.088 ± 0.19
21,D34H,0.061 ± 0.19

row,Variant,abundance fitness
1,D34T,0.053 ± 0.11
2,E26V,-0.082 ± 0.071
3,E26D,0.063 ± 0.097
4,E26F,-0.071 ± 0.13
5,E26Y,0.004 ± 0.13
6,E26N,-0.082 ± 0.15
7,Q28E,-0.102 ± 0.096
8,Q28A,-0.042 ± 0.081
9,Q28M,-0.168 ± 0.1
10,Q28I,-0.033 ± 0.13
11,Q28L,-0.205 ± 0.075
12,Q28D,-0.278 ± 0.14
13,Q28V,-0.064 ± 0.076
14,Q28N,-0.171 ± 0.14
15,Q28W,-0.642 ± 0.086
16,N49G,-0.124 ± 0.096
17,N49V,-0.053 ± 0.1
18,N49R,0.02 ± 0.086
19,N49W,-0.014 ± 0.15
20,N49M,-0.093 ± 0.13
21,N49Y,-0.145 ± 0.19

row,Variant,abundance fitness
1,R55K,-0.175 ± 0.16
2,R55F,-0.146 ± 0.14
3,R55N,-0.356 ± 0.2
4,R55H,0.013 ± 0.29
5,R55A,-0.139 ± 0.097
6,R55I,-0.096 ± 0.16
7,R55Y,-0.195 ± 0.27
8,H45C,-0.194 ± 0.12
9,H45M,0.029 ± 0.1
10,H45F,0.009 ± 0.14
11,H45E,0.106 ± 0.099
12,H45R,-0.052 ± 0.091
13,H45L,-0.032 ± 0.079
14,I6T,-0.448 ± 0.11
15,I6G,-0.48 ± 0.08
16,I6W,-0.477 ± 0.1
17,I6E,-0.408 ± 0.091
18,I6D,-0.484 ± 0.12
19,I6P,-0.108 ± 0.12
20,I6K,-0.332 ± 0.11
21,I6L,0.179 ± 0.076

row,Variant,abundance fitness
1,I6V,-0.084 ± 0.072
2,I43V,-0.015 ± 0.09
3,I43C,-0.349 ± 0.2
4,I43K,-0.945 ± 0.21
5,I43E,-0.767 ± 0.12
6,I43R,-1.21 ± 0.12
7,I43Y,-1.08 ± 0.34
8,I43M,-0.706 ± 0.16
9,W46A,-0.63 ± 0.13
10,W46N,-0.561 ± 0.19
11,W46P,-0.812 ± 0.2
12,T7S,0.054 ± 0.079
13,T7F,-0.432 ± 0.17
14,T7C,-0.367 ± 0.11
15,D8R,-0.226 ± 0.064
16,D8M,-0.096 ± 0.086
17,D8Q,0.061 ± 0.092
18,D8L,-0.028 ± 0.067
19,D8I,-0.122 ± 0.12
20,K35P,-0.998 ± 0.14
21,K35I,-0.329 ± 0.14
